Data taken from patent US20220170028A1, “NOVEL INTERLEUKIN-2 VARIANTS AND BIFUNCTIONAL FUSION MOLECULES THEREOF” (Cugene Inc, priority 2019, published 2022).
Entries after “also recorded” stand apart in the source; their conditions may differ.

Legend:
[1] = Transient expression level of IL-2 Fc fusion constructs in HEK-293F cells; conditions: for expression level (titer): transiently in HEK-293F cells, Example 4
Protocol: The constructs were produced by co-transfecting HEK293-F cells growing in suspension with the mammalian expression vectors using polyethylenimine (PEI, 25,000 MW linear, Polysciences). If there were two or more expression vectors, the vectors were transfected in a 1:1 ratio. For transfection, HEK293 cells were cultivated in serum free FreeStyle™ 293 Expression Medium (ThermoFisher). For production in 1000 ml shaking flasks (working volume 330 mL), HEK293 cells were seeded at a density of 0.8×10^6 cells/ml 24 hours before transfection. A total of 330 μg of DNA expression vectors were mixed with 16.7 ml Opti-mem Medium (ThermoFisher). After addition of 0.33 mg PEI diluted in 16.7 ml Opti-mem Medium, the mixture was vortexed for 15 sec and subsequently incubated for 10 min at room temperature. The DNA/PEI solution was then added to the cells and incubated at 37° C. in an incubator with 8% CO2. Sodium butyrate (Millipore Sigma) was added to the cells at day 4 at a final concentration of […] to help sustain protein expression. After 6 days cultivation, supernatant was collected for purification by centrifugation for 20 min at 2200 rpm. The solution was sterile filtered (0.22 μm filter, Corning). The secreted protein was purified from cell culture supernatants using Protein A affinity chromatography.
(§1) S125I substitution was thus introduced into a number of IL-2 variant Fc fusion molecules. The constructs harboring Ile-125 substitution in IL-2 were expressed using the same vector and in the same culturing conditions as their Ser-125 counterparts and purified using MabSelectSure. The expression level in mg/L and purity assessed by SEC chromatography in aggregation % of exemplary molecules are summarized in Table 6. The two molecules in the same row of Table 6 share the same other amino acid substitution(s) and differ only at residue 125 with either serine or isoleucine. As an example, the SEC chromatogram and SDS-PAGE pictures of P-0447 (SEQ ID NO: 173) and its Ile-125 counterpart P-0511 (SEQ ID NO: 213) were further illustrated in FIGS. 1D and 1E.

[2] = Aggregate content by size-exclusion chromatography after Protein A purification; assay type: physicochemical; conditions: for Aggregation % (SEC): after MabSelectSure; for aggregates / high-molecular weight species (SEC): Example 4
Protocol: For affinity chromatography each supernatant was loaded on a HiTrap MabSelectSure column (CV=5 mL, GE Healthcare) equilibrated with 25 ml phosphate buffered saline, pH 7.2 (ThermoFisher). Unbound protein was removed by washing with 5 column volumes PBS, pH 7.2 and target protein was eluted with 25 mM sodium citrate, 25 mM sodium chloride, pH 3.2. Protein solution was neutralized by adding 3% of 1 M Tris pH 10.2. Ion exchange chromatography or mix-mode chromatography, including but not limited to CaptoMMC (GE Healthcare), ceramic hydroxyapatite, or ceramic fluoroapatite (Bio-Rad) was also utilized to polish the Protein A material as needed. Target protein was concentrated with an Amicon®Ultra-15 concentrator 10 KDa NMWC (Merck Millipore Ltd.)
The purity and molecular weight of the purified constructs were analyzed by SDS-PAGE with and in the absence of a reducing agent and staining with Coomassie (Imperial® Stain). The NuPAGE® Pre-Cast gel system (4-12% or 8-16% Bis-Tris, ThermoFisher) was used according to the manufacturer's instructions. The protein concentration of purified protein samples was determined by measuring the UV absorbance at 280 nm (Nanodrop Spectrophotometer, ThermoFisher) divided by the molar extinction coefficient calculated on the basis of the amino acid sequence. The aggregate content of the constructs was analyzed on an Agilent 1200 high-performance liquid chromatography (HPLC) system. Samples were injected onto an AdvanceBio size-exclusion column (300 Å, 4.6×150 mm, 2.7 μm, LC column, Agilent) using 150 mM sodium phosphate, pH 7.0 as the mobile phase at 25° C.
as §1

[3] = tested on: CD4+ Treg vs CD4+ Tconv cells; test: STAT5 phosphorylation, selectivity / activity profile Treg versus CD4+ Tconv cells, human PBMC; assay type: cell-based
Excerpt: (§2) Single amino acid substitutions were introduced to IL-2 at positions corresponding to amino acids interacting with receptor subunit(s) β or γ or βγ. These substitutions were aimed to reduce IL-2 signaling capacity through the intermediate affinity IL-2Rβγ complex and confer signaling specificity from the high affinity IL-2Rαβγ. IL-2 variants containing single amino acid substitutions were examined for their ability to differentially stimulate STAT5 phosphorylation in CD4 positive Treg and Tconv cells. STAT5 is known to be involved in the downstream signaling cascade upon IL-2 binding to the transmembrane IL-2 receptors. The phosphorylation of STAT5 in defined lymphocyte subpopulations was measured using fresh human peripheral blood mononuclear cells (PBMC) and the forkhead transcription factor FOXP3 was used to identify the Treg population in FACS analysis.
(§3) Briefly, human PBMC were isolated by Ficoll-Hypaque centrifugation from the buffy coat of a healthy donor. PBMC were starved in serum-free MACS buffer at 4° C. for 1 hour. 2×10^5 PBMC were then treated with serial dilutions of test compounds for 30 min at 37° C. Cells were fixed and permeabilized with Foxp3/Transcription Factor Staining Buffer Set (EBIO) by incubating with 1× Foxp3 fixation/permeabilization working solution for 30 minutes and washing with 1× permeabilization buffer. Cells were additionally fixed with Cytofix buffer and permeabilized with Perm Buffer III (BD Biosciences) and then washed. After blocking Fc receptors by adding human TruStain FcX (1:50 dilution), cells were stained with a mixture of anti-CD25-PE, anti-FOXP3-APC, anti-pSTAT5-FITC, and anti-CD4-PerCP-Cy5.5 antibodies at concentrations recommended by the manufacturer for 45 minutes at room temperature. Cells were collected by centrifugation, washed, resuspended in FACS buffer, and analyzed by flow cytometry. The flow cytometry data was gated into CD4+/Foxp3+/CD25^high and CD4+/Foxp3−/CD25^low groups for the Treg and CD4 conventional T cell subsets, respectively. Data are expressed as a percent of pStat5 positive cells in gated population.
The S125I substitution was then introduced into wild-type IL-2 or IL-2 variants that already harbored 1 or 2 mutations targeting receptor subunit(s) β or γ or βγ. The resulting IL-2 variants containing isoleucine at position 125 were tested for their ability to stimulate STAT5 phosphorylation in Treg and Tconv cells in comparison with their respective serine counterparts at position 125. Table 7 lists the potency and selectivity of IL-2 variants in Treg cells. The two molecules in the same row of Table 7 share the same other amino acid substitution(s) and differ only at position 125 with either serine or isoleucine.

[4] = tested on: STAT5 phosphorylation in CD4+ Treg cells; test: STAT5 phosphorylation in CD4+ Treg cells, human PBMC assay by FACS; assay type: cell-based
Excerpt: as §2, §3

[5] = tested on: STAT5 phosphorylation in CD4+ Tconv cells; test: STAT5 phosphorylation in CD4+ Tconv cells, human PBMC assay by FACS; assay type: cell-based
Excerpt: as §2, §3

Row | Substance | Expression ([1]; Serine-125 constructs) [mg/L] | expression level (titer) [1] | Aggregation % (SEC) ([2]; Serine-125 constructs) [%] | potency in Treg cells relative to CD4+ Tconv cells [3] | Treg Selectivity ([3]; Serine-125 constructs) | aggregates / high-molecular weight species (SEC) [2] [%] | STAT5 phosphorylation activity in Treg cells (in words) [4] | activity profile / selectivity window Treg over CD4+ Tconv (in words) [3] | STAT5 phosphorylation activity in CD4+ Tconv cells (in words) [5] | Expression ([1]; Isoleucine-125 constructs) [mg/L] | Aggregation % (SEC) ([2]; Isoleucine-125 constructs) [%] | Treg Selectivity ([3]; Isoleucine-125 constructs)
1 | P-0250: wild type IL-2 Fc fusion protein, C-terminal fusion, SEQ ID NO: 71 [reference compound] | 3.1 | around 3 mg/L | 25.7 | about 250 fold | Yes | – | – | – | – | – | – | –
2 | P-0317: IL-2 D20I/N88R Fc fusion, SEQ ID NO: 96 | – | similarly low level | – | – | – | 7.5 | – | – | – | – | – | –
3 | P-0318: IL-2 D20I/N88I Fc fusion, SEQ ID NO: 97 | – | similarly low level | – | – | – | 65 | – | – | – | – | – | –
4 | P-0363: IL-2 D20T Fc fusion, SEQ ID NO: 74 | 1.4 | – | 29.4 | – | – | – | ability to induce STAT5 phosphorylation | some or significant biased selective window | largely diminished or abolished | – | – | –
5 | P-0364: IL-2 D20E Fc fusion, SEQ ID NO: 75 | 0.7 | – | 21.1 | – | Yes | – | ability to induce STAT5 phosphorylation | – | largely diminished or abolished | – | – | –
6 | P-0372: IL-2 L19Y Fc fusion, SEQ ID NO: 81 | 4.0 | 4.0 mg/L | 21.7 | – | Yes | 21.7 | minimally impacted the pSTAT5 activation potency | modestly improved selective window | largely retained the biological activity | – | – | –
7 | P-0419: IL-2 L19Y/Q126E Fc fusion, SEQ ID NO: 105 | 6.7 | – | 33.8 | – | Yes | – | mainly reserved; also recorded: retained comparable potency; also recorded: significant potency | significantly widened; also recorded: very comparable to that of the Benchmark-1 molecule; also recorded: comparable activity profile to Benchmark-1 | varied significantly; also recorded: largely abolished | – | – | –
8 | P-0424: IL-2 L19H Fc fusion, SEQ ID NO: 153 | 7.7 | – | 21.4 | – | Yes | – | – | selective activation of Treg cells over CD4+ Tconv cells | reduced | – | – | –
9 | P-0425: IL-2 L19D Fc fusion, SEQ ID NO: 154 | 2.6 | – | 32.6 | – | Yes | – | slightly reduced potency | wide window for selective targeting of Treg subset | significantly impaired | – | – | –
10 | P-0491: IL-2 L19H/S125I Fc fusion, SEQ ID NO: 190 | – | – | – | – | – | – | slightly increased potency | without altering Treg selectivity | – | 36.7 | 0.6 | Yes
11 | P-0492: IL-2 L19D/S125I Fc fusion, SEQ ID NO: 191 | – | – | – | – | – | – | – | – | – | 13.6 | 0 | Yes
12 | P-0493: IL-2 D20E/S125I Fc fusion, SEQ ID NO: 192 | – | – | – | – | – | – | – | – | – | 7.9 | 1.7 | Yes
13 | P-0494: IL-2 D20T/S125I Fc fusion, SEQ ID NO: 193 | – | – | – | – | – | – | – | – | – | 11.7 | 0.5 | –
14 | P-0495: IL-2 L19Y/S125I/Q126E Fc fusion, SEQ ID NO: 194 | – | – | – | – | – | – | – | – | – | 23.5 | 0.8 | Yes
